Data from publication PMC8563728 (Nature Communications, 2021).

Target: SARS-CoV-2 S1 (SARS-CoV-2, wild type (Wuhan-Hu-1), UniProt P0DTC2)
Experiment: SPR
Settings: both partners purified

B1: 58G6 (antibody, V domains shown)
VH: QMQLVQSGPEVKKPGTSVKVSCKASGFTFSSSAVQWVRQARGQHLEWIGWIVVGSGNTNYAQKFQERVTLTRDMSTRTAYMELSSLRSEDTAVYYCAAPNCNSTTCHDGFDIWGQGTVVTVSS
VL: EIVLTQSPGTLSLSPGERATLSCRASQSVRSSYLGWYQQKPGQAPRLLIYGASSRATGIPDRFSGSGSGTDFTLTISRLESEDFAVYYCQQYDNSPWTFGQGTKVEIK
notes: also called 58G6 mAb; copies: 2 + 2
Kd: 1.08 nM
